The chains are these.
B1: cr534 (nucleic acid)
guide: GTTTAAGAGCTAAGCTGGAAACAGCATAGCAAGTTTAAATAAGGTTAATCCGTTATCAACTTGAAAAAGTGACACCGAGTCGGTGTT
modifications: listed as DNA, chemistry not fully specified
B2: cr156 (nucleic acid)
guide: B1 guide with T45C, A48G, T62A, A67T, A72G, T86C
modifications: listed as DNA, chemistry not fully specified
B3: cr363 (nucleic acid)
guide: B1 guide with T45C, A48G, C60T, T62C, A67G, G69A, A72G, T86C
modifications: listed as DNA, chemistry not fully specified
B4: cr945 (nucleic acid)
guide: B1 guide with T45C, A48G, A66G, A72G, G79T, T86C
modifications: listed as DNA, chemistry not fully specified
B5: cr956 (nucleic acid)
guide: B1 guide with T45C, T46A, A48G, A72G, T86C
modifications: listed as DNA, chemistry not fully specified
B6: cr636 (nucleic acid)
guide: B1 guide with T45C, A48G, A64G, A65T, A72G, T86C
modifications: listed as DNA, chemistry not fully specified
B7: cr722 (nucleic acid)
guide: B1 guide with T45C, A48G, A65G, A72G, A74C, T84G, T86C
modifications: listed as DNA, chemistry not fully specified
B8: cr669 (nucleic acid)
guide: B1 guide with T45C, A48G, A72G, G79A, T86C
modifications: listed as DNA, chemistry not fully specified
B9: cr604 (nucleic acid)
guide: B1 guide with T45C, T46A, A48G, A65C, A72G, T86C
modifications: listed as DNA, chemistry not fully specified
B10: cr489 (nucleic acid)
guide: B1 guide with T45C, A48G, A65G, A72G, C73G, G85C, T86C
modifications: listed as DNA, chemistry not fully specified
B11: cr973 (nucleic acid)
guide: B1 guide with T45C, A48G, G63A, A72G, T86C
modifications: listed as DNA, chemistry not fully specified
B12: cr353 (nucleic acid)
guide: B1 guide with T45C, A48G, T62A, A72G, T86C
modifications: listed as DNA, chemistry not fully specified
B13: cr145 (nucleic acid)
guide: B1 guide with T45C, A48G, A65T, A72G, T86C
modifications: listed as DNA, chemistry not fully specified
B14: cr698 (nucleic acid)
guide: B1 guide with G29A, T45C, A48G, T54A, A64T, A72G, T86C
modifications: listed as DNA, chemistry not fully specified
B15: cr923 (nucleic acid)
guide: B1 guide with T45C, A48G, A74C, T84G
modifications: listed as DNA, chemistry not fully specified
B16: cr128 (nucleic acid)
guide: B1 guide with T45C, A48G, A59G, T70C, A72G, C76A, G82T, T86C
modifications: listed as DNA, chemistry not fully specified
B17: cr995: original, un-modified sgRNA constant region sequence (nucleic acid)
guide: B1 guide with T45C, A48G, A72G, T86C
modifications: listed as DNA, chemistry not fully specified
B18: cr392 (nucleic acid)
guide: B1 guide with A32T, T45C, A48G, A65T, A72G, T86C
modifications: listed as DNA, chemistry not fully specified
B19: cr172 (nucleic acid)
guide: B1 guide with T45C, A47T, A48G, A64T, A72G, T86C
modifications: listed as DNA, chemistry not fully specified
B20: cr671 (nucleic acid)
guide: B1 guide with T45C, A48G, A68G, A72G, T86C
modifications: listed as DNA, chemistry not fully specified
B21: cr023 (nucleic acid)
guide: B1 guide with A8G, T45C, A48G, A72G, T86C
modifications: listed as DNA, chemistry not fully specified
B22: cr478 (nucleic acid)
guide: B1 guide with A28G, T45C, A48G, A72G, T86C
modifications: listed as DNA, chemistry not fully specified
B23: cr670 (nucleic acid)
guide: B1 guide with T45C, A48G, T70G, A72G, T86C
modifications: listed as DNA, chemistry not fully specified
B24: cr609 (nucleic acid)
guide: B1 guide with A32T, T45C, A48G, G63A, A72G, G79A, T86C
modifications: listed as DNA, chemistry not fully specified
B25: cr446 (nucleic acid)
guide: B1 guide with A59T, T70A, A72G, C73G, G85C, T86C
modifications: listed as DNA, chemistry not fully specified
B26: cr947 (nucleic acid)
guide: B1 guide with A19G, T45C, A48G, A72G, T86C
modifications: listed as DNA, chemistry not fully specified
B27: cr195 (nucleic acid)
guide: B1 guide with T45C, A48G, A64C, A72G, G79T, T86C
modifications: listed as DNA, chemistry not fully specified
B28: cr839 (nucleic acid)
guide: B1 guide with T45C, A48G, A65G, A72G, T86C
modifications: listed as DNA, chemistry not fully specified
B29: cr152 (nucleic acid)
guide: B1 guide with T45C, A48G, C73A, G85T
modifications: listed as DNA, chemistry not fully specified
B30: cr774 (nucleic acid)
guide: B1 guide with A20C, T45C, A48G, A72G, T86C
modifications: listed as DNA, chemistry not fully specified
B31: cr666 (nucleic acid)
guide: B1 guide with A72G, C73A, A74G, T84C, G85T, T86C
modifications: listed as DNA, chemistry not fully specified
B32: cr893 (nucleic acid)
guide: B1 guide with T45C, A48G, A72G
modifications: listed as DNA, chemistry not fully specified
B33: cr321 (nucleic acid)
guide: B1 guide with A31C, T45C, A48G, A72G, T86C
modifications: listed as DNA, chemistry not fully specified
B34: cr851 (nucleic acid)
guide: B1 guide with T45C, A48G, A59G, T70C, A72G, G77A, C81T, T86C
modifications: listed as DNA, chemistry not fully specified
B35: cr713 (nucleic acid)
guide: B1 guide with T45C, A48G, T62A, A65G, A67T, A72G, T86C
modifications: listed as DNA, chemistry not fully specified
B36: cr932 (nucleic acid)
guide: B1 guide with C30T, T45C, A48G, A72G, T86C
modifications: listed as DNA, chemistry not fully specified
B37: cr653 (nucleic acid)
guide: B1 guide with T45C, A48G, A72G, C76A, G82T, T86C
modifications: listed as DNA, chemistry not fully specified
B38: cr789 (nucleic acid)
guide: B1 guide with T45C, A48G, A72C, T86G
modifications: listed as DNA, chemistry not fully specified
B39: cr269 (nucleic acid)
guide: B1 guide with T45C, A48G, A72C, C73A, G85T, T86G
modifications: listed as DNA, chemistry not fully specified

Numbering of substitutions follows the chain as printed.

The first data set relates to K562 CRISPRi cells. The experiment in a line: Constant region variant library pooled growth screen, K562. Type of data set: cell-based, human. The note with it: sgRNA constant region variants; activity relative to the original, un-modified constant region cr995. The essentials: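 K562 CRISPRi, duplicate transductions; puromycin 1 d 0.75 μg/mL then 1 d 0.85 μg/mL; >2000× coverage in spinner flasks; harvests at 4-8 d growth. Activity = phenotype ÷ phenotype with unmodified constant region.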
As to B1, the Mean relative activity stood at 1.069.

B2: the Mean relative activity is given as 1.072.

With B3, the Mean relative activity stood at 1.07.

Staying with this data set, now noted: sgRNA constant region variants; relative to the original, un-modified constant region cr995 (= 1).
B4 showed a Mean relative activity of 1.002.

As to B5, the Mean relative activity stood at 0.9983.

B6 came in with a Mean relative activity of 0.992.

Regarding B7, the Mean relative activity worked out at 1.001.

The molecule B8 yielded a Mean relative activity of 0.9881.

As for B9, the Mean relative activity amounted to 0.9912.

The molecule B10 gave a Mean relative activity of 0.9991.

Consider B11, for which the Mean relative activity is on record as 0.9873.

Turning to B12, the Mean relative activity is reported as 0.9885.

Molecule B13 yielded a Mean relative activity of 0.9925.

Molecule B14 had a Mean relative activity of 0.9956.

On to B15, for which the Mean relative activity turned out to be 1.002.

In turn, B16 showed a Mean relative activity of 1.002.

As for B17, the Mean relative activity worked out at 1.

On to B18, for which the Mean relative activity was determined as 0.9999.

For the molecule B19, the Mean relative activity was 0.9996.

Regarding B20, the Mean relative activity worked out at 0.9864.

For the molecule B21, the Mean relative activity is 0.9917.

Molecule B22 showed a Mean relative activity of 0.9898.

As for B23, the Mean relative activity was found to be 0.9903.

The molecule B24 came in with a Mean relative activity of 0.9895.

For B25, the Mean relative activity was determined as 0.9926.

With B26, the Mean relative activity worked out at 0.9997.

Turning to B27, the Mean relative activity worked out at 0.9986.

In turn, B28 came in with a Mean relative activity of 0.9918.

On to B29, for which the Mean relative activity is recorded as 0.9971.

Take B30: the Mean relative activity came to 0.9968.

As for B31, the Mean relative activity was 0.996.

On to B32, for which the Mean relative activity is on record as 0.9932.

Molecule B33 came in with a Mean relative activity of 0.9906.

As to B34, the Mean relative activity worked out at 1.002.

The molecule B35 had a Mean relative activity of 0.9979.

As for B36, the Mean relative activity worked out at 0.9947.

B37 showed a Mean relative activity of 0.9907.

On to B38, for which the Mean relative activity came out at 0.9955.

In the case of B39, the Mean relative activity was 0.9979.

The record behind these values is patent US20220259593A1, “CONTROL OF MAMMALIAN GENE DOSAGE USING CRISPR” (The Regents of the University of California, priority 2019, published 2022).
